# Publication PMC2770460
# pKd: −log10 of the molar value.
# Molecular target: recombinant full-length mammalian Tpr (6xHis-Tpr) (not stated (mammalian)) (UniProt P12270)
# Assay: ELISA; solid phase binding assay: Maxisorp microtiter plates coated with 25 ng of Tpr or C-Tpr; increasing concentrations of the soluble protein; bound protein detected with primary antibodies and horseradish peroxidase-conjugated secondary antibodies (TMB); apparent Kd from B = Bmax x Y/(Kd + Y); CRM1, NES and RanGTP at equimolar concentrations
# Chain of recombinant full-length mammalian Tpr (6xHis-Tpr) (not stated (mammalian)) (P12270 whole entry): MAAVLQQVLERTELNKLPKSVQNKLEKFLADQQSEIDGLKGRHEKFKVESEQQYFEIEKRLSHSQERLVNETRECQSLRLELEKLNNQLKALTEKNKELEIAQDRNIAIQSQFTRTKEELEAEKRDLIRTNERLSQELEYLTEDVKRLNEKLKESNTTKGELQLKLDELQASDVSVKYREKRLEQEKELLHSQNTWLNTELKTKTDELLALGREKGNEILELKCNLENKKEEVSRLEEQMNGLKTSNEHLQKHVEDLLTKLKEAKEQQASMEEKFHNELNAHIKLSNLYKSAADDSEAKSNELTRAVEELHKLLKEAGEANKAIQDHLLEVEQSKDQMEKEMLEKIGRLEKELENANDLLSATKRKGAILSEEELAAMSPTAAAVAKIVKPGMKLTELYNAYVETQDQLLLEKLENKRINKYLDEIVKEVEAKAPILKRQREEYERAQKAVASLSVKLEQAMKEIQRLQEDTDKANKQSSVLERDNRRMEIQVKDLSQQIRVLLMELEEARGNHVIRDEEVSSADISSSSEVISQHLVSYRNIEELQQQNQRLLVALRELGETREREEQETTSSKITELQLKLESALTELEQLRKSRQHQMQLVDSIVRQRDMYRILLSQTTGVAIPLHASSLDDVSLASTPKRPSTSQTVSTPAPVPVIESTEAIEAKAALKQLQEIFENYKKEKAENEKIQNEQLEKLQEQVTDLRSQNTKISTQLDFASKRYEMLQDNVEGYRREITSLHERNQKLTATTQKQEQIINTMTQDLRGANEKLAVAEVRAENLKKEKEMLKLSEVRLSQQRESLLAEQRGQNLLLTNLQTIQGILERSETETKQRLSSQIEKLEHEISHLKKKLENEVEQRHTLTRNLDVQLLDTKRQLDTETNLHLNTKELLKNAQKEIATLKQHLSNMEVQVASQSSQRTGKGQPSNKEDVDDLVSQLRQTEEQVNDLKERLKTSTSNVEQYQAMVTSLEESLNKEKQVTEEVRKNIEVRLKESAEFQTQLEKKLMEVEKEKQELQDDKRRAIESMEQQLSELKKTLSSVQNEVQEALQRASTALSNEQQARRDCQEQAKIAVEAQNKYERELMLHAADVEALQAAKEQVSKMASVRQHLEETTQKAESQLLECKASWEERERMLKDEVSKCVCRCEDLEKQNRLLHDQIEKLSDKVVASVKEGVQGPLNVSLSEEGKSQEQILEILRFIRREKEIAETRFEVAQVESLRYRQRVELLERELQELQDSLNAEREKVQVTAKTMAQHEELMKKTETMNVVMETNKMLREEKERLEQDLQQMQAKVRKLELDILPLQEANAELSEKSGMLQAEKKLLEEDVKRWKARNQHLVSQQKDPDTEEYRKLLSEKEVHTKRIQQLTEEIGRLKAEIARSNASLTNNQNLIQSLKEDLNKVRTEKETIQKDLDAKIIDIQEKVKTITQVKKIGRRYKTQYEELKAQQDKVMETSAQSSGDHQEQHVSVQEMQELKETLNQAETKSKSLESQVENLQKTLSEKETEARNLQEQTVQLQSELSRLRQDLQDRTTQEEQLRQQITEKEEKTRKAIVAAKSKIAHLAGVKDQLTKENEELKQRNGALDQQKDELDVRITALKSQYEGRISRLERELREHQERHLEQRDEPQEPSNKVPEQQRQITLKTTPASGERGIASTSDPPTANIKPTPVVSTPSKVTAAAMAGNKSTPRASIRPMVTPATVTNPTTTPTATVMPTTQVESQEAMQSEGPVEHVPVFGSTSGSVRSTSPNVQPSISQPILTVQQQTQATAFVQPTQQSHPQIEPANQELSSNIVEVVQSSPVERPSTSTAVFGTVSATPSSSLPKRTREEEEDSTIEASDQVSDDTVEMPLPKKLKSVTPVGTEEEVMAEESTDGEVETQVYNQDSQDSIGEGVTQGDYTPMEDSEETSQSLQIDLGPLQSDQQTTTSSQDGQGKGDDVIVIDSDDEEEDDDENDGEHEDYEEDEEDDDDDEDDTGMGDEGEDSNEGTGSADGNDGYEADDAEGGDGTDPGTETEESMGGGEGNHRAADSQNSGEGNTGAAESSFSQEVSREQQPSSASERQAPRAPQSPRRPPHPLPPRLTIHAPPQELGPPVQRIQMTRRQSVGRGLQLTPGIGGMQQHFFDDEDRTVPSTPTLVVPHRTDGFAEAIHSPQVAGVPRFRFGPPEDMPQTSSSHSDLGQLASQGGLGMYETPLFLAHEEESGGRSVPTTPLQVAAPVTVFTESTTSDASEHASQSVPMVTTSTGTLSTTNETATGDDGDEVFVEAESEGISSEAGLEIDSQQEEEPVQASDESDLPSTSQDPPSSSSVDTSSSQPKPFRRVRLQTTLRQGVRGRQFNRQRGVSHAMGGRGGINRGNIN
substance,measurement,value
His-importin α (from UniProt P52292 1-529) (natural protein),pKd,7.67
